The assay deals with E. coli BL21 (DE3)+kan^R. Format: cell-based, Escherichia coli. The conditions noted are these: OD600 growth curve, 37° C., 96-well plates, duplicates averaged.

Description: Growth was determined by measurement of the optical density at 600 nm (OD600) for 18 hours in 96-well plates at 37° C. The profile of the OD600 curves corresponds to the bacterial growth. […] Each sample was prepared in duplicate and the results averaged.
Antimicrobial activity was investigated in a 96-well plate by incubating E. coli BL21 (DE3)+kan^R bacteria either with microcin S alone or with microcin S and an antibiotic at 37° C. for 18 h.
To investigate whether microcin S in combination with antibiotics can likewise achieve synergistic effects on sensitive bacteria, growth profiles of the microcin S-sensitive indicator strain Escherichia coli BL21 (DE3) provided with a kanamycin resistance gene are recorded photometrically in a microtitre plate of 96-well format. […] After loading with the individual samples, the microtitre plate is incubated directly in a photometer (Epoch2 microplate reader from Biotek, USA) at 37° C. and 200 rpm (double-orbital, ∞) for 15 h. The optical density at 600 nm wavelength (OD600) is measured simultaneously for all wells at regular intervals. The graphic evaluation of the recorded measurement points is done subsequently with the aid of Microsoft Excel (Microsoft Corporation, USA). […]

B1: Microcin S: Antimicrobial polypeptide of E. coli G3/10 (SEQ ID NO: 7), prepared in a cell-free E. coli based in vitro expression system (protein, listed as Escherichia coli)
chain: NANSNYEGGGSRSRNTGARNSLGRNAPTHIYSDPSTVKCANAVFSGMVGGAIKGGPVGMTRGTIGGAVIGQCLSGGGNGNGGGNRAGSSNCSGSNVGGTCSR
As to B1, the “Time of incubation after which the antibacterial effect is observed (collapse of bacterial growth)” value worked out at 5 h.
